Data reported in US20230201322A1.
Like-named read-outs stand apart in the source and are kept apart here.

Legend:
[1] = biological target: HLA-A*0201 molecule expressed on the human tumoral cell T2 (human); assay: T2 cell HLA-A2 FACS (BB7.2-PE), peptide 1 µM
[2] = biological target: HLA-A*0201 molecule expressed on the human tumoral cell T2 (human); assay: T2 cell HLA-A2 FACS (BB7.2-PE), peptide 10 µM
[3] = biological target: HLA-A*0201 molecule expressed on the human tumoral cell T2 (human); assay: T2 cell HLA-A2 FACS (BB7.2-PE), peptide titration
[4] = biological target: HLA-A*0201 molecule expressed on the human tumoral cell T2 (human); assay: T2 cell HLA-A2 FACS (BB7.2-PE), peptide 10 µM; remark: listed apart in the source
[5] = biological target: HLA-A*0201 molecule expressed on the human tumoral cell T2 (human); assay: T2 cell HLA-A2 FACS (BB7.2-PE), peptide titration; remark: listed apart in the source
[6] = biological target: HLA-A*0201 molecule expressed on the human tumoral cell T2 (human); assay: T2 cell HLA-A2 FACS (BB7.2-PE), peptide titration; remark: listed apart in the source
[7] = biological target: HLA-A*0201 molecule expressed on the human tumoral cell T2 (human); assay: T2 cell HLA-A2 FACS (BB7.2-PE), peptide 0.1 µM
[8] = biological target: HLA-A*0201 molecule expressed on the human tumoral cell T2 (human); assay: T2 cell HLA-A2 FACS (BB7.2-PE), peptide 10 µM; remark: listed apart in the source
[9] = biological target: HLA-A*0201 molecule expressed on the human tumoral cell T2 (human); assay: T2 cell HLA-A2 FACS (BB7.2-PE), peptide 0.1 µM; remark: listed apart in the source
[10] = biological target: HLA-A*0201 molecule expressed on the human tumoral cell T2 (human); assay: T2 cell HLA-A2 FACS (BB7.2-PE), peptide 0.1 µM; remark: listed apart in the source
[11] = biological target: HLA-A*0201 molecule expressed on the human tumoral cell T2 (human); assay: T2 cell HLA-A2 FACS (BB7.2-PE), peptide 1 µM; remark: listed apart in the source
[12] = biological target: HLA-A*0201 molecule expressed on the human tumoral cell T2 (human); assay: T2 cell HLA-A2 FACS (BB7.2-PE), peptide 1 µM; remark: listed apart in the source

HLA-A2 labelling as % of reference peptide HIV pol 589-597 at 100 µM [1]: -5.38% | HLA-A2 labelling as % of reference peptide HIV pol 589-597 at 100 µM [2]: -3.03% | Conc. inducing 20% of HLA-A2 expression [3]: 26.5 µM | HLA-A2 labelling as % of reference peptide HIV pol 589-597 at 100 µM [4]: 3.8% | Conc. inducing 20% of HLA-A2 expression [5]: 30.9 µM | Conc. inducing 20% of HLA-A2 expression [6]: 36 µM | HLA-A2 labelling as % of reference peptide HIV pol 589-597 at 100 µM [7]: 5.62% | HLA-A2 labelling as % of reference peptide HIV pol 589-597 at 100 µM [8]: 8.8% | HLA-A2 labelling as % of reference peptide HIV pol 589-597 at 100 µM [9]: 2.58% | HLA-A2 labelling as % of reference peptide HIV pol 589-597 at 100 µM [10]: -9.24% | HLA-A2 labelling as % of reference peptide HIV pol 589-597 at 100 µM [11]: 4.65% | HLA-A2 labelling as % of reference peptide HIV pol 589-597 at 100 µM [12]: -2.54%
Substance: reference peptide HIV pol 589-597
